Test results published in patent EP3766512A1 (Universität Zürich, dated 2021).

Experiments:
Test in all cases: Protein G affinity chromatography bead
human IL-12Fc NAH = target: T1, human IL-12Fc NAH (human, UniProt P29460 23-328; P29459 23-219)
T1 construct: not shown: linker between p40 and p35 of single chain IL-12 not described; junction or linker between IL-12 and Fc not described

human IL-12Fc NAA = target: T2, human IL-12Fc NAA (human, UniProt P29460 23-328; P29459 23-219)
T2 construct: not shown: linker between p40 and p35 of single chain IL-12 not described; junction or linker between IL-12 and Fc not described

human IL-12Fc NAE = target: T3, human IL-12Fc NAE (human, UniProt P29460 23-328; P29459 23-219)
T3 construct: not shown: linker between p40 and p35 of single chain IL-12 not described; junction or linker between IL-12 and Fc not described

Measured: binding result

T3 sequence (P29460 other isoform, or with tags, fused parts or gaps): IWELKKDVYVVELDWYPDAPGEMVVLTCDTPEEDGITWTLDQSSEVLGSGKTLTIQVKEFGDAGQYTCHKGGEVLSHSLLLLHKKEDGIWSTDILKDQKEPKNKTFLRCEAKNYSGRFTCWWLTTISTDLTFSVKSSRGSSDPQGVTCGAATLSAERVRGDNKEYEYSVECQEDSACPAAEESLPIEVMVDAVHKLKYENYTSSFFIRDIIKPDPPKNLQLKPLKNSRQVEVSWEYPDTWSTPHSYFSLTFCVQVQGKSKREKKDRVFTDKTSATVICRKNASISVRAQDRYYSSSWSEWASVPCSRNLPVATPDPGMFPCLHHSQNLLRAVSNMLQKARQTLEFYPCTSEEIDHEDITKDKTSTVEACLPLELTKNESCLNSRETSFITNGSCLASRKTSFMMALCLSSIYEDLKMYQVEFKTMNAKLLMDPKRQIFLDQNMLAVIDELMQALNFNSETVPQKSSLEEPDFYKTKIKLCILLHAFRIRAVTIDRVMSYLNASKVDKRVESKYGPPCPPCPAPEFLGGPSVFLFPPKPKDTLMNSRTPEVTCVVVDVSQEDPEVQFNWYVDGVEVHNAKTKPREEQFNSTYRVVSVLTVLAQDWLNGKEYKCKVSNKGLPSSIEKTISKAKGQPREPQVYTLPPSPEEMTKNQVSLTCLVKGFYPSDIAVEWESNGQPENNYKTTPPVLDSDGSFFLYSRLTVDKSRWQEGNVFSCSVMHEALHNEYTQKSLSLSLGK
T2 sequence (P29460 other isoform, or with tags, fused parts or gaps): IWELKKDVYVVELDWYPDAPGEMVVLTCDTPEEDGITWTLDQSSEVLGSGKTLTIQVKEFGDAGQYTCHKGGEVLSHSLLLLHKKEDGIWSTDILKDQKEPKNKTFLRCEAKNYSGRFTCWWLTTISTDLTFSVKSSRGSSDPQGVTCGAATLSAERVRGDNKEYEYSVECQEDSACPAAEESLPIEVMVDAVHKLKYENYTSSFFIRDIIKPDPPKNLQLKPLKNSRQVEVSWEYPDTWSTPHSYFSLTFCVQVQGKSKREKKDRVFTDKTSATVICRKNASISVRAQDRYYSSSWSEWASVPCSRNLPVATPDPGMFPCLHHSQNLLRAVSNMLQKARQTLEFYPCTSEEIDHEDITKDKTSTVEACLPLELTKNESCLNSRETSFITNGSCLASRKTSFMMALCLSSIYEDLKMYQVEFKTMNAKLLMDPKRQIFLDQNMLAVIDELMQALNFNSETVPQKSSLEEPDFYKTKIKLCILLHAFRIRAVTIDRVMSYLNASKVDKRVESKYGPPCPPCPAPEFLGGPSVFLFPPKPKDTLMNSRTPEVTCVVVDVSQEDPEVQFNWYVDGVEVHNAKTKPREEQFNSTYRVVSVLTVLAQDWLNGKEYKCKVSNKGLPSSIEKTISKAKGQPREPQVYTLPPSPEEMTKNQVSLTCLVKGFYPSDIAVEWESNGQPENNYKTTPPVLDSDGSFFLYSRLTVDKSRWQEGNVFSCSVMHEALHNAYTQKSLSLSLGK
T1 sequence (P29460 other isoform, or with tags, fused parts or gaps): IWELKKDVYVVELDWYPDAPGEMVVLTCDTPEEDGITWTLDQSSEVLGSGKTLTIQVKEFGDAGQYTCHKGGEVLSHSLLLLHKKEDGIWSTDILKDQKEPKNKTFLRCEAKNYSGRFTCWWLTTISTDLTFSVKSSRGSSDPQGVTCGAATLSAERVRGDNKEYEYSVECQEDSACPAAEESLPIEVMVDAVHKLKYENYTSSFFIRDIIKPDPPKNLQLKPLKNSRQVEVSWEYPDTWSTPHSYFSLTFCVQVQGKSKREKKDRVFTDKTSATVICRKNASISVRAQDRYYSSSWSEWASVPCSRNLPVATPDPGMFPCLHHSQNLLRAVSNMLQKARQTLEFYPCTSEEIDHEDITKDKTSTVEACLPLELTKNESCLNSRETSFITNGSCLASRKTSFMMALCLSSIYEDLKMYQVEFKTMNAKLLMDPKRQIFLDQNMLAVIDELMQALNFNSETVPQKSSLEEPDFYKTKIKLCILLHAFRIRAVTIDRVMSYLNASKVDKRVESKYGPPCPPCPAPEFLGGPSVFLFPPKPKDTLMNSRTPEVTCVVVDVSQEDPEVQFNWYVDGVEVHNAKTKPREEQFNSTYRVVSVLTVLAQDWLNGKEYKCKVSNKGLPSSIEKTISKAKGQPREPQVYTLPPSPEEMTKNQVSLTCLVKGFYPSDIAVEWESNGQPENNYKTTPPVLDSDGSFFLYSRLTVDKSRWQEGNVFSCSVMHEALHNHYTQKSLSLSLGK

B1: Protein G (chromatography bead) (other, UniProt P19909 303-497, looked up)
chain: TYKLILNGKTLKGETTTEAVDAATAEKVFKQYANDNGVDGEWTYDDATKTFTVTEKPEVIDASELTPAVTTYKLVINGKTLKGETTTEAVDAATAEKVFKQYANDNGVDGEWTYDDATKTFTVTEKPEVIDASELTPAVTTYKLVINGKTLKGETTTKAVDAETAEKAFKQYANDNGVDGVWTYDDATKTFTVTE
no binding: human IL-12Fc NAH | human IL-12Fc NAA | human IL-12Fc NAE
